Test [1] addresses Rad3/Rad26 (ATR/ATRIP homolog in Schizosaccharomyces pombe) with TAPm-Rad3 (S. pombe) (UniProt Q02099). Briefly: co-IP.
The target of test [2] is Fatty acid synthase (FAS) of S. pombe, co-purified with Rad3/Rad26 (S. pombe) (UniProt Q9UUG0).

In test [1], “Apo-state fatty acid synthase (FAS) of S. pombe with Fas1-FLAG, Q9UUG0 1-2073; Q10289 1-1842” came in with a fold of co-precipitation compared with control (CPT-treated cells) of 1.79 times and a fold of co-precipitation compared with control (MMS-treated cells) of 2.01 times. As for “Rad3/Rad26 (ATR/ATRIP homolog in Schizosaccharomyces pombe) with TAPm-Rad3, Q02099 1-2386; P36632 1-614”, in test [2], the specific (catalytic) activity of co-purified FAS relative to apo-state FAS worked out at 23.3%.

For the origin of these results see publication PMC6934155.
